From the nanobody polyreactivity screen of Harvey et al. (2022)

experiment: yeast display, Sf9 membrane polyspecificity reagent, FACS + sequencing; frameworks hold sequencing errors
Summary of the method: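 Galactose induction of a Saccharomyces cerevisiae BJ5465 synthetic nanobody display library ran 36–48 hours. The cells were then stained for 1 hour at 4 °C with 10% biotinylated, detergent-solubilized Sf9 membrane reagent, pulled down on streptavidin microbeads and FACS-sorted into low and high (top ~1%) gates on expression and reagent-binding fluorescence. Labels for polyreactivity follow the gate of origin.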

Sequence | polyreactivity (PSR sort gate)
QVQLVESGGGLFQAGGSLRLSCAASGITFPDYAMGWYRQAPGKERELVATISSSGGNTYYADSVKGRFTISRDNAKNTVYLQMNSLKPEDTAVYYCATVSYYLGYDYWGQGTQVTVSS | low polyreactivity
QVQLVESGGGLVQAGGSLRLSCAASGFIFWSNARGWYRQAPGQDRELVAAINSSGGRTDYADSVKGRFTNSRDNAKNTDYLHMNSLKPEDTAVYYCAARLHSPPYRYDYWGQGTQVTVSS | high polyreactivity
QVQLVESGGGLVQAGGSLRLTFAASGINLYDNVMGWYRTAPGKERELVAAISSSGTTKYYADSVKGRFTISRDYAKNTFYLQMNSLNPEDTAVYYCAADGITWYAIAYYYWGQGTQVTVSS | high polyreactivity
QVQLVESGGGLVQAGGSLRLSCAASGFIFSRYAMGWYRQAAGKERELVAAISYSGSSTYYADSVKGRFTISRDNAKNTVFLQMNSLKPEDTGVYYCNAVTQITGSSDGDYWGQGTQVTVSS | high polyreactivity
QVQLVESGGGLVQAGGSLRLSCAASGSIFRVYAMGWYRQAPGKERELVARISRGGRTNYADSVKGRFTISRDNAKNTVYLQMNSLKPEDTSVYYCAADVVSLESYSYQSLGYDSWGQGTQVNVSS | high polyreactivity
QVQIVESGGGIVQAGGSLRLSCAASGRTLQTYVMGWYRQSPGKEREWVAAITRGGGSTYYADSVKGRFTISRDNAKNTVYLQMNSLKPEDTAVYYCAASALRFNSSFSHWYNYWGQGTQVTVSS | high polyreactivity
QVQLVESGGGLVQAGGSLRLSCAASGIIFSAYAMGWYRQPPGKERELVAVIDSDGDGTYYADSVKGRFTISRDNAKNTVYLQMNSLKPEDTAVYYCAADYEYTRVEGWFIGFDEYGYWGQGTQVTVSS | low polyreactivity
QVQLGESGGGLVQAGGSLRLSCAASGFTFYGNAMGWYRQAPGKERELVAAITYSGGRTYYADSVKGRFTISRDNAKNTVYLQMNSLKPEDTAVYYCARRRGYGQYDYWGQGTQVTVSS | high polyreactivity
QVQLVESGGGLVQAGGSLRLSCAASGSIFEPYVMGWYRQAPGKERELVAVITSGSGRTYYADSVKGRFTISRDNAKNTVYLQMNSLKPEDTAVYYCNKAYLGYRYDLYDYWGQGTQVTVSS | low polyreactivity
QVQLVESGGGLVQAGGSLRLSCAASGGIFRYYAMGWSRQAPGKEMELVAAITRGGRTSYADSVKGRFTISRDNAKNSVYLQMNSLKPEDTAVYYCNAKRPYQEHNSYGYWGQGTLVTVSS | high polyreactivity
QVQLVESGGGLVQAGGSLRLSCAASGRTFRYYDMGWYRQAPGKEREFVAAITWRGGSTYYADSVKGRFTISRDYAKNTVYLQMNSLTPEDTAVYYCATDSLRLYGGKRDLYYWGQGTQVTVSS | low polyreactivity
QVQLVESGGGLLQAGGRLRLSCAASGSIFAAYTMGWYRQAPWKERELVAAISVSTVSTYYADSVKGRFTISRDNAKITVYLQMNSLKPEDTAVYYCNADPTDSYPQKYEHDSWGQGTQVTVSS | low polyreactivity
QVQLVESGGGLVQAGGSLRLSCAASGSIFNRYAMGWYRQAPGKEREFVARISKRGGGTYYADSVKGRFTISRDNAKNTVYLQMNSLKPEDTAGYYCNAGVPSAMDYWGQGTQVTVSS | high polyreactivity
QVQLVESGGGLVEAGGSLRLSCAASGRTFGTYPMGWYRQAPGKERELVAAISSRGGTTYYADSVKGRFTISRDNAKNTVYLQMNSLKPEDTEVYYCARASWSITTVLSTMDYWGQGTQVTVSS | high polyreactivity
QVQRVESGGGLVQAGGSLRLSCAASGGTFAFNTMGWYRQAPGIERELVADISSGGSTNYADSVKGRFTISRDNAKNTVYLQMNRLKPVDSAVYYGNGGWDILYLQGDLDYWGQGTQVTVSS | low polyreactivity
QVQLVESGGGLVQAGGSLRLSCAASGSTFSAKTIGGYRQAPGKEMELVAGITITGDTYYADSVKGRFTISRDNAKNTVYLQMNSLKPEDTAVYYCAAAWYEPATQTGYFEFDYWGQGTQVTVSS | low polyreactivity
